Measurements reported in the supplement of paper PMC9170038.

Test system: MS2 coat protein
Assay: apparent KD of MS2 coat protein; designed switch direction (-1 OFF switch, 1 ON switch): 1; higher = weaker reporter binding
In short: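 For each design, the apparent KD is the median over clusters of curves fitted to normalised cluster fluorescence. Clusters held RNA switches with common flanks, transcribed on Illumina chips by stalled E. coli RNA polymerase. These were titrated with SNAP-549-labelled MS2 coat protein, doubling from 0.7 or 1.5 nM to 3 µM, without input, with 200 uM small-molecule ligand, or with an oligonucleotide input.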

[1] = Eterna round: R95, input ligand: FMN 200 uM
[2] = Eterna round: R95, input ligand: microRNA oligo, concentration not stated
[3] = Eterna round: R95, input ligand: none
[4] = input ligand: microRNA oligo, concentration not stated

Sequence | apparent KD of MS2 coat protein [1] | apparent KD of MS2 coat protein [2] | apparent KD of MS2 coat protein [3] | apparent KD of MS2 coat protein (input ligand: FMN 200 uM) | apparent KD of MS2 coat protein [4] | apparent KD of MS2 coat protein (input ligand: none)
AAAGCCCGUGCUAAGGAUAUGCGUACUCCUACAUGAGGAUCACCCAUGUCCCGCCGAAAAGGAAGGCAGAAGGUAGCACGGGCAA [Letiso] (puzzle: Same State 2) | 48.3 nM | 114 nM | 126 nM | – | – | –
AAAGUACAUGAGGAUCACCCAUGUCCAAACAAGUAAGGAUAUACGAAAACAAAACAAAAUGUAGAAGGUACAACAA [Same State 1 #2] (puzzle: Same State 1) | 18.1 nM | 17.9 nM | 26.4 nM | – | – | –
AAAGUGCCGACGAAGGAUAUAGCGGGUGAGACAUGAGGAUCACCCAUGUAUGCAGAACUCAUCCUCUAGAAGGUUGAGACGGCUA [Bionlateat] (Eterna round: R96, puzzle: Same State 2) | – | – | – | 151 nM | 31.1 nM | 95.9 nM
AACAAUCUAUCUGAGGAUAUCAUGAAAUAAACAUGAGGAUCACCCAUGUGCAGGAAAACUGUAUAUGAGAAGGCAGAUAGAUUGA [salish99_ss2_r3_046] (puzzle: Same State 2) | 14.8 nM | 69.2 nM | 101 nM | – | – | –
AACAAUCUAUCUGAGGAUAUCAUGAAAUAAACAUGAGGAUCACCCAUGUGCAGGAAAUCUGCAUAUGAGAAGGCAGAUAGAUUGA [salish99_ss2_r3_043] (Eterna round: R96, puzzle: Same State 2) | – | – | – | – | 672 nM | –
AACAAUCUAUCUGAGGAUAUCAUGAAAUAAACAUGAGGAUCACCCAUGUGCAGGAAAUCUGCAUAUGAGAAGGCAGAUAGAUUGA [salish99_ss2_r3_043] (puzzle: Same State 2) | 33.9 nM | 1240 nM | 4600 nM | – | – | –
AACAUGAGGAUCACCCAUGUAGAAAAGUGAGGCAGCUCAGGGAAGGAUAUGGUUGACACCCUCGACCAGAAGGUCCAAAAUAAA [Argeatonra] (Eterna round: R96, puzzle: Same State NG 3) | – | – | – | 31.2 nM | 54.2 nM | 63.6 nM
AACAUGAGGAUCACCCAUGUCAGGUCGCCAACCUACAUGAGGAAGGAUAUAGCCUCGAAUAUUGGCUAGAAGGUCCUCAUGAAU [Tieson] (Eterna round: R96, puzzle: Same State NG 3) | – | – | – | 320 nM | 16.4 nM | 39.9 nM
AAGAAAGACGCAGGAUAUCAGUGCAAACCGCACUGAGAAGGGUGAGACAUGAGGAUCACCCAUGUAACACGGCAAAACACCGUG [Teinre] (Eterna round: R96, puzzle: Same State NG 1) | – | – | – | 1240 nM | 49.3 nM | 191 nM
AAGAGGUCCGCAGGAUAUACCCGGCCUCGCCGGGUAGAAGGGUGAACCUCAUAACCCACCACACACAUGAGGAUCACCCAUGUA [Enisaon] (Eterna round: R96, puzzle: Same State NG 1) | – | – | – | 494 nM | 1.93 nM | 111 nM
AAGUAACAUGAGGAUCACCCAUGUGAGGUGAGCGUAGGAUAUCGAGGAGGAAGGGUGGAGCGAGAAGGACGAGAGG [JR_SS1_Sub099] (Eterna round: R96, puzzle: Same State 1) | – | – | – | 544 nM | 281 nM | 386 nM
AAGUAACAUGAGGAUCACCCAUGUGAGGUGAGCGUAGGAUAUCGAGGAGGAAGGGUGGAGCGAGAAGGACGAGAGG [JR_SS1_Sub099] (puzzle: Same State 1) | 375 nM | 189 nM | 471 nM | – | – | –
AAGUAACAUGAGGAUCACCCAUGUGAGGUGAGCGUAGGAUAUCGAGGAGGUAGGGUAGGUCGAGAAGGACGAGAAG [JR_SS1_Sub095] (puzzle: Same State 1) | 323 nM | 210 nM | 700 nM | – | – | –
AAUACAAAUAGUCAGGAUAUCAAAAAUAAGACAUGAGGAUCACCCAUGUAAUAAGUAAAAGUAAAUGAGAAGGGACAGGGUGAAA [JR_SS002_Sub401] (Eterna round: R96, puzzle: Same State 2) | – | – | – | – | 197 nM | –
AAUCCUGUCACAGGAUAUCCAAGGUAAACCCUCGGAGAAGGGUGAUAGUCUAACAAACACACACAUGAGGAUCACCCAUGUUAA [Usxeus] (Eterna round: R96, puzzle: Same State NG 1) | – | – | – | 52.4 nM | 40.1 nM | 83.6 nM
AAUUAAGAUCAAGGAUAUCACGUCGAAUAGACGUGAGAAGGUGAUCAUAACAUGAGGAUCACCCAUGUAUUACAUGAAUUAAUU [SSNG1/2-B1] (Eterna round: R96, puzzle: Same State NG 1) | – | – | – | 71.3 nM | 177 nM | 289 nM
AAUUUAAUACAUGAGGAUCACCCAUGUAAAUUAAUUAAGAUCAAGGAUAUCAGCUCGAUUAGAGCUGAGAAGGUGAUCACAUGU [SSNG3/19-A2] (Eterna round: R96, puzzle: Same State NG 3) | – | – | – | – | 307 nM | –
ACAAGCUUUUCUGCAUUGAAAGGUGGGAUACAUGAGGAUCACCCAUGUUUUUAUGAAAAUAAUGCUCCUCGUCUUAU [JR_SHM208A_Sub092] (puzzle: Sensor for hsa-mir-208a) | 214 nM | 50.3 nM | 243 nM | – | – | –
ACAUGAGACUCAGGAUAUGUUGUACCUACAUGUGACAUGAGGAUCACCCAUGUGGUAAGUAUGAUACAGAAGGGAGAGAUAUGU [Equivalance 65 - Jieux - Same State NG 2] (Eterna round: R96, puzzle: Same State NG 2) | – | – | – | 20.5 nM | 22.1 nM | 43.6 nM
ACAUGAGAGAAAGGAUAUGUUGUACCUACAUGUGACAUGAGGAUCACCCAUGUGGUAAGUAUGAGACAGAAGGUUCAGAUAUGU [Equivalence 32 - Jieux - Same State NG 2] (Eterna round: R96, puzzle: Same State NG 2) | – | – | – | 20.4 nM | 51.1 nM | 65.7 nM
ACAUGAGAGUGAGGAUAUGCUGUACCUACAUGUGACAUGAGGAUCACCCAUGUGGUAAGUAUGACGCAGAAGGCACAGAUAUGU [Equivalance 78 - Jieux - Same State NG 2] (Eterna round: R96, puzzle: Same State NG 2) | – | – | – | 13.3 nM | 78.9 nM | 103 nM
ACGUGAGGCGCAGGAUAUACAUGAGGAUCACCCGUAGAAGGGCGCACCCAUAACAUGAGGAUCACCCAUGUUGUCCAUGUCCAU [Same State NG 1 S5] (Eterna round: R96, puzzle: Same State NG 1) | – | – | – | 226 nM | 158 nM | 241 nM
ACUCUCACAGUAGGAUAUGUAGGAUAUGCCUACAUGAGGAUCACCCAUGUAAACAUGGCAGAAGGAUAGAAGGACUUACAUGGG [pwkr ssNG2 2FMN + 1F5.4] (Eterna round: R96, puzzle: Same State NG 2) | – | – | – | 108 nM | 44.1 nM | 196 nM
AGAGGAGGAGCAGGAUAUGCGAAGAAGAAAGAGGUAGAAGGGCUCAUGGGAUGACAUGAGGAUCACCCAUGUACCGCCCGAGGA [AK SSNG1-V2-8.1] (Eterna round: R96, puzzle: Same State NG 1) | – | – | – | 11.5 nM | 46.4 nM | 297 nM
AGAGGAGGAGCAGGAUAUGCGAAGAAGAACGUGGUAGAAGGGCUCAUGCGAUGACAUGAGGAUCACCCAUGUACCUCGCGAGGA [AK SSNG1-V2-9] (Eterna round: R96, puzzle: Same State NG 1) | – | – | – | 414 nM | 130 nM | 186 nM
AGAUCAUGACGAGGAUAUCCGACAUGAGGAUCACCCAUGUAUGUCGGAGGACGGAAACGUCCAAAGGAGAAGGCGUCGUGGUCA [Mat - Same State NG 2 - JL mod - D37] (Eterna round: R96, puzzle: Same State NG 2) | – | – | – | 17.7 nM | 72.4 nM | 85.3 nM
AGAUCAUGACGAGGAUAUGCCACAUGAGGAUCACCCAUGUAUGUGGUAGGACGCGUACGUCCAAAGCAGAAGGCGUCGUGAUCA [Mat - Same State NG 2 - JL mod - D36] (Eterna round: R96, puzzle: Same State NG 2) | – | – | – | 21.5 nM | 37.6 nM | 47.9 nM
AGAUCAUGACGAGGAUAUGCCACAUGAGGAUCACCCAUGUAUGUGGUAGGACGGAAACGUCCAAAGCAGAAGGCGUCGUGGUCA [Mat - Same State NG 2 - JL mod - D35] (Eterna round: R96, puzzle: Same State NG 2) | – | – | – | 23.1 nM | 44.8 nM | 41.7 nM
